Assay results: patent publication US20090305339A1, “Polypeptides With Laccase Activity” (VIALACTIA BIOSCIENCES (NZ) LIMITED, priority 2006, published 2009)

What was measured:
[1] = Decolorization of Poly R-478; assay type: biochemical; conditions: Poly R-478 0.025%, pH 4.5, room temperature, 0.2 units enzyme, 3500 min
Method: Decolorization of Poly-R 478 (0.025 w/v) in the presence or absence of HOBt (1-Hydroxybenzotriazole) (0.9 mM) was determined spectrophotometrically (520 nm) at room temperature in 100 mM sodium phosphate buffer pH 4.5.

[2] = Electrochemical analysis of immobilized laccase in the presence of DMP; conditions: for electrochemical activity (current): DMP
Text: RL5 was immobilized on BAS glassy carbon electrodes (FIGS. 3B,D) or on gold electrodes (FIGS. 3A,C). Both materials provide different enzyme orientations:
(i) the carbon electrode presents hydroxyl groups on the surface, providing a laccase substrate-like structure, which makes the enzyme to immobilize preferably with the active site facing the electrode surface; and
(ii) gold provides high hydrophobic surface that avoids the contact between the high-hydrophilic density amino acid domain of the enzyme and the electrode, being the hydrophobic domains which preferably orient towards the gold surface.
Some differences in the electrochemical measurements were observed due to the different orientation of the enzyme on the electrode in the presence of substrate (DMP) (FIGS. 3A,B). Thus, when RL5 laccase was immobilized on gold (FIG. 3A), the activity in the presence of oxygen was of 0.38 microamperes (dashed line), whereas in the absence of oxygen it was of 0.69 microamperes (dotted line). Most likely, the enzyme is using approximately half of the electrons for the reduction of the substrate and the other half from the oxygen in the solution; however, in absence of oxygen, all the electrons are used from the electrode, giving a higher measurement value. When using the carbon electrode (FIG. 3B), the enzyme orients in such a way that the measure, in the presence of oxygen, was 2.8 microamperes (dashed line). This could be explained by the fact that 93% of the electrons are used from the electrode, either because of different enzyme orientations, or because the immobilization on carbon kept higher amount (approximately 7 times) of laccase active. In the carbon electrode the T2 copper oxidization potential site, +500 vs. normal hydrogen electrode (NHE) was determined.
The electrochemical measurements have been performed with BAS CV-50W voltammetric analyzer. For gold surface experiments, a gold BAS disc electrode has been used. The electrode was cleaned according to the following procedure: the electrode was firstly immersed in “piranha” solution, containing 1 part of hydrogen peroxide 33% v and 3 parts of sulphuric acid 98%, during 5 minutes, after which the electrode was rinsed thoroughly with milliQ water, and polished with Buehler® micropolish gamma alumina #3, 0.05 micron size, during 5 minutes, on a polishing cloth, further immersed into a milliQ water solution and exposed to ultrasounds for 15 minutes. Then, the electrode was cleaned with sulphuric acid oxidization cyclic voltammetry for 30 minutes. […] After 180 minutes from the first addition, the laccase-modified gold electrode was measured in 100 mM phosphate buffer (pH 6.0) in the presence of oxygen. […]

[3] = Laccase activity, violuric acid as substrate; assay type: biochemical
[4] = Electrochemical analysis of immobilized laccase in absence of substrate; conditions: for potential at which electro-reduction of oxygen begins: no substrate
Text: Electrochemical information on electrodes modified with RL5 laccase in absence of substrate was also obtained (FIGS. 3C,D). Again, we found some differences when the electrode material was gold or glassy carbon. Thus, the electro-reduction of oxygen begins in +250 mV when the electrode was gold (FIG. 3C), while it began at +500 mv when it was glassy carbon (FIG. 3D). We found additional information on the glassy carbon electrode compared with the gold electrode. Thus, when removing the oxygen from solution, the T1 copper site oxidization potential of 740 mV vs. NHE was registered. In addition, when a reactivation with oxygen was performed, the three oxidation potential peaks were registred: T1 of 745 mV vs. NHE was the highest; T3 site of 500 mV vs. NHE had two copper ions, so it is the one with a higher area; T2 site had 400 mV vs. NHE. The redox potential of T1 was registered to be in the range of fungal laccases (480-785 mV) (Solomon et al., 1996; Klonowska etal., 2002).
The electrochemical measurements have been performed with BAS CV-50W voltammetric analyzer. For gold surface experiments, a gold BAS disc electrode has been used. The electrode was cleaned according to the following procedure: the electrode was firstly immersed in “piranha” solution, containing 1 part of hydrogen peroxide 33% v and 3 parts of sulphuric acid 98%, during 5 minutes, after which the electrode was rinsed thoroughly with milliQ water, and polished with Buehler® micropolish gamma alumina #3, 0.05 micron size, during 5 minutes, on a polishing cloth, further immersed into a milliQ water solution and exposed to ultrasounds for 15 minutes. Then, the electrode was cleaned with sulphuric acid oxidization cyclic voltammetry for 30 minutes. The electrode was rinsed three times with milliQ water and polished again for another 5 minutes with the same alumina powder. After the subsequent sonication for 15 minutes, the electrode was finally inmersed into a reductive 0.5 M NaOH solution for 30 minutes and rinsed with milliQ water. The laccase enzyme was immobilized by dropping […] of the enzyme solution at a concentration of 5 mg/ml on the gold surface facing upward and covered to avoid evaporation. After 90 minutes, the second drop was added. After 180 minutes from the first addition, the laccase-modified gold electrode was measured in 100 mM phosphate buffer (pH 6.0) in the presence of oxygen. For measurements under anaerobic conditions, N2 was “bubbled” for 15 minutes into the electrochemical cell. The same procedure was repeated for measuring in presence of 2,6-dimethoxyphenol, used as a test substrate. The immobilization on the carbon electrode was performed on a BAS glassy carbon electrode. The electrode was polished on a graphite-polishing cloth for 5 minutes, until mirror-like surface was achieved. The electrode was rinsed thoroughly with water and, facing upwards, 20 μl of the laccase solution (5 mg/ml) were dropped on the classy carbon surface. The electrode was covered and let to immobilize for 20 minutes. All electrochemical measurements performed for the gold electrode are repeated for this electrode.

[5] = glassy carbon, after reactivation with oxygen, vs. NHE

B1: RL5: polypeptide with laccase activity from bovine rumen metagenome library, amino acid sequence of FIG. 11 (protein)
chain: MIELEKLDFAKSVEGVEAFSTTRGQVDGRNAYSGVNLCDYVGDDALRVLDARLTLAMQLGVDLDDLVMPRQTHSCRVAVIDERFRALDIDEQEAALEGVDALVTRLQGIVIGVNTADCVPIVLVDSQAGIVAVSHAGWRGTVGRIAKAVVEEMCRQGATVDRIQAAMGPSICQDCFEVGDEVVEAFKKAHFNLNDIVVRNPATGKAHIDLRAANRAVLVAAGVPAANIVESQHCSRCEHTSFFSARRLGINSGRTFTGIYRK
modifications: Description of sequence Amino acid sequence of RL5 laccase 3217 to 2414 frame 1 - 262 amino acids (see Figure 11)
Q: For B1, which “Poly R-478 solution oxidized” value [1] is on record?
A: more than 70%

Q: And the “electrochemical activity (current)” value ([2]; carbon electrode, presence of oxygen)?
A: 2.8 microamperes

Q: And the “T2 copper oxidization potential site” value ([2]; carbon electrode, vs. normal hydrogen electrode (NHE))?
A: +500

Q: And the “electrochemical activity (current)” value ([2]; gold electrode, absence of oxygen)?
A: 0.69 microamperes

Q: And the “electrochemical activity (current)” value ([2]; gold electrode, presence of oxygen)?
A: 0.38 microamperes

Q: And the “substrate of the laccase” value [3]?
A: not substrates

Q: What about the “potential at which electro-reduction of oxygen begins” value ([4]; glassy carbon electrode) of the same molecule?
A: +500 mv

Q: And the T1 oxidation potential [4, 5]?
A: 745 mV

Q: And the “T2 site oxidation potential” value [4, 5]?
A: 400 mV

Q: And the “T3 site oxidation potential” value [4, 5]?
A: 500 mV

Q: And the “T1 copper site oxidization potential” value ([4]; glassy carbon, oxygen removed from solution, vs. NHE)?
A: 740 mV

Q: What about the “potential at which electro-reduction of oxygen begins” value ([4]; gold electrode) of the same molecule?
A: +250 mV
